The text below walks through data of publication PMC11813584, “An odorant-binding protein functions in fire ant social immunity interfacing with innate immunity” (Open Biology, 2025).

For orientation: Kd means the equilibrium constant for the complex coming apart. Read a high Kd as weaker binding.

In the assay the target is SiOBP15, purified, His-tag removed (Solenopsis invicta). In words: SPR; open SPR; SiOBP15 coupled to a COOH chip until saturation, SiApoLp-III or SiFABP5 titrated as analyte; one-to-one model (TraceDrawer). (In general: SPR reads the build-up and loss of mass on a sensor chip optically.)

“SiFABP5, purified, His-tag removed (natural protein)” returned a dissociation constant (Kd) of 1100 nM.
